Experiment [1] addresses T1, IGF-IR extracellular domain (human, UniProt P08069). Kind of experiment: SPR. (Surface plasmon resonance follows binding to a sensor surface in real time, without labels.)
A further experiment addresses IGF-IR (human, UniProt P08069). In words: competition, IGF-I blocking.
Experiment [2] deals with T1, IGF-IR extracellular domain. Kind of experiment: SPR, protocol 1.
Experiment [3] has the same target. In words: SPR, protocol 2.

Substitutions are numbered along the chain they refer to.

B1: 6.1.1 (antibody, V domains shown)
VH: EVQLLESGGGLVQPGGSLRLSCAASGFTFSSYAMSWVRQAPGKGLEWVSGITGSGGSTYYADSVKGRFTISRDNSKNTLYLQMNSLRAEDTAVYYCAKDPGTTVIMSWFDPWGQGTLVTVSS
VL: RATLSCRASQSVRGRYLAWYQQKPGQAPRLLIYGASSRATGIPDRFSGSGSGTDFTLTISRLEPEDFAVFYCQQYGSSPRTFGQGTKVEIK
Regarding B1, in experiment [1], the Kd (in general, the free concentration of one partner at which half of the binding sites on the other are occupied at equilibrium, for simple one-to-one binding) came to 0.565 nM.

B2: 2.12.1 (antibody, V domains shown)
VH: GRLGQAWRSLRLSCAASGFTFSDYYMSWIRQAPGKGLEWVSYISSSGSTRDYADSVKGRFTISRDNAKNSLYLQMNSLRAEDTAVYYCVRDGVETTFYYYYYGMDVWGQGTTVTVSS
VL: ASVGDRVTFTCRASQDIRRDLGWYQQKPGKAPKRLIYAASRLQSGVPSRFSGSGSGTEFTLTISSLQPEDFATYYCLQHNNYPRTFGQGTEVEIIR
Take B2: the IC50 (as a rule, the concentration needed to halve the response being measured) with IGF-IR is 0.45 µg/mL. The affinity in experiment [2], expressed as Kd, was 7.37 nM.

B3: 2.14.3 (antibody, V domains shown)
VH: GPGLVKPSETLSLTCTVSGGSISNYYWSWIRQPAGKGLEWIGRIYTSGSPNYNPSLKSRVTMSVDTSKNQFSLKLNSVTAADTAVYYCAVTIFGVVIIFDYWGQGTLVTVSS
VL: SSLSASVGDRVTFTCRASQDIRRDLGWYQQKPGKAPKRLIYAASRLQSGVPSRFSGSGSGTEFTLTISSLQPEDFATYYCLQHNNYPRTFGQGTEVEIIR
B3 gave a Kd in experiment [1] of 0.641 nM.

B4: 4.17.3 (antibody, V domains shown)
VH: PGLVKPSETLSLTCTVSGGSISSYYWSWIRQPPGKGLEWIGYIYYSGSTNYNPSLKSRVTISVDTSKNQFSLKLSSVTAADTAVYYCARTYSSSFYYYGMDVWGQGTTVTVSS
VL: GDRVTITCRASQSISTFLNWYQQKPGKAPKLLIHVASSLQGGVPSRFSGSGSGTDFTLTISSLQPEDFATYYCQQSYNAPLTFGGGTKVEIK
On to B4, for which the Kd in experiment [1] was 13 nM.

B5: 2.13.2 (antibody, V domains shown)
VH: VQLLESGGGLVQPGGSLRLSCTASGFTFSSYAMNWVRQAPGKGLEWVSAISGSGGTTFYADSVKGRFTISRDNSRTTLYLQMNSLRAEDTAVYYCAKDLGWSDSYYYYYGMDVWGQGTTVTVSS
VL: DIQMTQFPSSLSASVGDRVTITCRASQGIRNDLGWYQQKPGKAPKRLIYAASRLHRGVPSRFSGSGSGTEFTLTISSLQPEDFATYYCLQHNSYPCSFGQGTKLEIK
With B5, the IC50 with IGF-IR turned out to be 0.18 µg/mL. Moreover, the Kd in experiment [3] was 1.53 nM; in experiment [2], 3.5 nM.

B6: 4.9.2 (antibody, V domains shown)
VH: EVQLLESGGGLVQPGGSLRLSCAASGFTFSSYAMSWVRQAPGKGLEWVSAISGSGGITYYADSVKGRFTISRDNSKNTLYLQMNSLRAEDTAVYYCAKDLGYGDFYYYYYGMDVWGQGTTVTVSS
VL: B5 VL with F7S, N31S, Y36F, R53K, S77R, C96L, S97T, Q100G, L104V
In the experiment with IGF-IR, B6 showed an IC50 of 0.1 µg/mL. In addition, the dissociation constant Kd stood at 0.427 nM in experiment [3] and 0.684 nM in experiment [2].

The record behind these values is patent US20160096894 (published 2016).
